Assay results published in patent US20250188189A1 (published 2025).
Numbering of substitutions follows the chain as printed.

T1: plasma-derived human activated protein C (APC) (UniProt P04070 43-461)
T1 chain: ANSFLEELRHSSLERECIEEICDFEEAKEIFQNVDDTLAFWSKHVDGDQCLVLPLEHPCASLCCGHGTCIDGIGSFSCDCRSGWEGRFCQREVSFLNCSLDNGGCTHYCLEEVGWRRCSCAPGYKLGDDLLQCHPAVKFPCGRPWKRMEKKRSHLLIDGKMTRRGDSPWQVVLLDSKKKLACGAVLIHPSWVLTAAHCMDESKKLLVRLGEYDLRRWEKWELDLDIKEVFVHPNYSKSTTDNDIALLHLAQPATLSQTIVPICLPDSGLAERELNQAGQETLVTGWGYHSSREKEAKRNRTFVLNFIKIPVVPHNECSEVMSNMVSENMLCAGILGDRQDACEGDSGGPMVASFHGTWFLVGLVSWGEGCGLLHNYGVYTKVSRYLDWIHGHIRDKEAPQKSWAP

B1: TPP-29845 (antibody, V domains shown)
VH: EVQLVESGGGLVQPGGSLRLSCAASGFTFSNFYMNWVRQAPGKGLEWVSYISSSSSTIYYADSVKGRFTISRDDSKNSLYLQMNSLKTEDTAVYYCAREGDYFDYWGQGTLVTVSS
VL: EIVLTQSPGTLSLSPGERATLSCRASQSVSSFGATFMHWYQQKPGQPPKLLIYLASNRASGVPDRFSGSGSGTDFTLKISRVEAEDVGVYYCQQNNEDPYTFGQGTKLEIKR
B2: TPP-29863 (antibody, V domains shown)
VH: B1 VH with F32Y
VL: B1 VL with S28R
B3: TPP-29866 (antibody, V domains shown)
VH: B1 VH with F32Y, T57P
VL: B1 VL
B4: TPP-29846 (antibody, V domains shown)
VH: B1 VH with N31P, F32Y
VL: B1 VL
B5: TPP-29855 (antibody, V domains shown)
VH: B1 VH with F32Y, S54R
VL: B1 VL
B6: TPP-29864 (antibody, V domains shown)
VH: B1 VH with F32Y
VL: B1 VL with N57R
B7: TPP-29857 (antibody, V domains shown)
VH: B1 VH with F32Y
VL: B1 VL with Y100W
B8: TPP-29856 (antibody, V domains shown)
VH: B1 VH with F32Y
VL: B1 VL with N57H
B9: TPP-29849 (antibody, V domains shown)
VH: B1 VH with F32Y
VL: B1 VL with S56W
B10: TPP-29865 (antibody, V domains shown)
VH: B1 VH with F32Y, M34F
VL: B1 VL
B11: TPP-26939 (antibody, V domains shown)
VH: EVQLVESGGGLVQPGGSLRLSCAASGFTFSNYYINWVRQAPGKGLEWVGDIRLKSNNYEKHYAESVKGRFTISRDDSKNSLYLQMNSLKTEDTAVYYCAREGDYFDYWGQGTLVTVSS
VL: B1 VL with E1D, G9A, T10S, S12A, L13V, E17Q, L21I, S22T, R24K
B12: TPP-29854 (antibody, V domains shown)
VH: B1 VH with F32Y
VL: B1 VL with A55K
B13: TPP-29843 (antibody, V domains shown)
VH: B1 VH with F32Y, S53T
VL: B1 VL
B14: TPP-29861 (antibody, V domains shown)
VH: B1 VH with F32Y, S56R
VL: B1 VL
B15: TPP-29848 (antibody, V domains shown)
VH: B1 VH with F32Y
VL: B1 VL with Q27E
B16: TPP-29850 (antibody, V domains shown)
VH: B1 VH with F32Y
VL: B1 VL with N57W
B17: TPP-29844 (antibody, V domains shown)
VH: B1 VH with N31I, F32Y
VL: B1 VL
B18: TPP-29847 (antibody, V domains shown)
VH: B1 VH with F32Y
VL: B1 VL with Y100F
B19: TPP-26922 (antibody, V domains shown)
VH: B11 VH with I34M, N35S
VL: B1 VL
B20: TPP-29858 (antibody, V domains shown)
VH: B1 VH with F32Y
VL: B1 VL with S56R
B21: TPP-29853 (antibody, V domains shown)
VH: B1 VH with F32Y, F103M
VL: B1 VL
B22: TPP-29860 (antibody, V domains shown)
VH: B1 VH with F32Y
VL: B1 VL with Q93T
B23: TPP-29852 (antibody, V domains shown)
VH: B1 VH with N31F, F32Y
VL: B1 VL
B24: TPP-24829 (antibody, V domains shown)
VL: DIVLTQSPASLAVSPGQRATITCKASESVDSFGATFMHWYQQKPGQPPKLLIYLASNRASGVPDRFSGSGSGTDFTLKISRVEAEDVGVYYCQQNNEDPYTFGQGTKLEIK
B25: TPP-24913 (antibody, V domains shown)
VL: EIVLTQSPGTLSLSPGERATLSCRASQSVSSFGATFMHWYLQKPGQSPQLLIYLASNLESGVPARFSGSGSGTDFTLKISRVEAEDVGVYYCQQNNEDPYTFGQGTKLEIK
B26: TPP-24917 (antibody, V domains shown)
VL: B25 VL with L58R, E59A, A64D
B27: TPP-24893 (antibody, V domains shown)
VL: B25 VL with Q27E, S30D, L41Q, S47P, Q49K, L58R, E59A, A64D
B28: TPP-24847 (antibody, V domains shown)
VL: DIVLTQSPASLAVSPGQRATITCKASQSVSSFGATFMHWYLQKPGQSPQLLIYLASNLESGVPARFSGSGSGTDFTLTINPVEADDTANYYCQQNNEDPYTFGQGTKLEIK
B29: TPP-24843 (antibody, V domains shown)
VL: B28 VL with L41Q, S47P, Q49K, L58R, E59A, A64D
B30: TPP-24841 (antibody, V domains shown)
VL: B24 VL with E27Q, D30S, R58L, A59E, D64A
B31: TPP-24851 (antibody, V domains shown)
VL: B28 VL with L58R, E59A, A64D

Target: T1, plasma-derived human activated protein …
Assay: SPR; head prints nM; kd/ka gives M

Kd [nM]	Binder
10.7	B1
23.8	B2
22.2	B3
6.37	B4
26.1	B5
10.4	B6
13.3	B7
21.3	B8
10.2	B9
12.7	B10
52.1	B11
25.2	B12
22.3	B13
11.3	B14
16.2	B15
3.13	B16
10.1	B17
8.33	B18
91.7	B19
24.9	B20
23.3	B21
23.9	B22
1.18	B23

Target: T1, plasma-derived human activated protein …
Assay: SPR

Kd [nM]	Binder
31.3	B24
85.6	B25
44.6	B26
28.6	B27
85.5	B28
48.6	B29
93.2	B30
49.8	B31
